According to publication PMC6700365, “Expression and Characterization of Carotenoid Cleavage Oxygenases From Herbaspirillum seropedicae and Rhodobacteraceae bacterium Capable of Biotransforming Isoeugenol and 4-Vinylguaiacol to Vanillin” (Frontiers in Microbiology, 2019):

How the values were obtained:
Test in all cases: HPLC of vanillin formed
[1] = substrate: C=Cc1ccc(O)c(OC)c1; assay type: biochemical, Herbaspirillum seropedicae; conditions: measured under optimal conditions (pH 7.0, 40 °C), 10% glycerol
Source text: (§1) HPLC of vanillin formed on HsCCO

[2] = substrate: CC=Cc1ccc(O)c(OC)c1; assay type: biochemical, Herbaspirillum seropedicae; conditions: measured under optimal conditions (pH 7.0, 40 °C), 10% glycerol
Source text: as §1

[3] = substrate: C=Cc1ccc(O)c(OC)c1; assay type: biochemical, Paracoccaceae bacterium; conditions: measured under optimal conditions (pH 9.0, 35 °C), 10% glycerol
Source text: (§2) HPLC of vanillin formed on RbCCO

[4] = substrate: CC=Cc1ccc(O)c(OC)c1; assay type: biochemical, Paracoccaceae bacterium; conditions: measured under optimal conditions (pH 9.0, 35 °C), 10% glycerol
Source text: as §2

Protein	Km [1] [µM]	Vmax [1] [µmol/min/mg]	Km [2] [µM]	Vmax [2] [µmol/min/mg]	Km [3] [µM]	Vmax [3] [µmol/min/mg]	Km [4] [µM]	Vmax [4] [µmol/min/mg]
HsCCO (Herbaspirillum seropedicae) (protein, codon-optimized gene, NdeI/XhoI in pET-29a(+), His-tagged, E. coli BL21(DE3), Ni-NTA, about 55 kDa on SDS-PAGE) MSMQYPATPEFQGMYRPSRVEASVQALEVVGQLPAQLQGCFYQVAPDPAYPPMLGQDIFFNGDGMVSAFRFGQGQVSLTRRYVQTERLKAQRQAGRSLNGIYRNIYTNAPEAASDNTTANTTVIKHAGVLLALKEDSLPYAMDPVTLETRGLWDFHGQVKSATFTAHPKICPQSGSMLCFAYEAKGDGTPDIAYYEIDAAGKLIRETWFQAPYAAMIHDFAVTENYVIFPIIPLTVDVERMKRGGQHFQWQPDLPQLFGILPRAGDAADVRWFYGPADGFQGHTLNAYELGRKLILDMPVTSGNVFYFFPQADGFVPSPETLKSGLARWTFDLDADNDQVMPEPLTQFPCEFPRCDERYSGRPYQHGFMLAFDPTLPFDAAALGAPPFQFFNQLAHVNVRTGETRTWYAGDAHCFQEPVFVPRSADAPEGDGFLLSLLNDLRSGATELVILDTHDLSAGPVARVQIPLRMRMSLHGNWSSD	1650	0.0279	1550	0.0741				
RbCCO (Paracoccaceae bacterium) (protein, codon-optimized gene, BamHI/XhoI in pET-29a(+), His-tagged, co-expressed with GroEL/GroES (pGro7) in E. coli BL21(DE3), Ni-NTA, about 55 kDa on SDS-PAGE) MTRPFPKTPEFSGSLYRPARFEGSVFDLEVEGRVPEDIHGTFFQVAPDPQFPPMRGNDIFFNGDGAVHAFRFANGAVDFQRRYVMTDRLKAQRAERESLFGLYRNGYTNDPRADGVHMGTANTNVVQHNGRLLALKEDSPPYALDPVTLETHGLFDFDGQLTSPTFTAHPKFDPETGAMLCFGYEAKGEATPDIVYYEIDSQGRKQREIWLRGPYAAMIHDFAVTRNYIIFPLMPLTPDLDRIRKGGNHFEWQPGLEQVFGVLPRDGDGTDVRWFTAPNGFQGHTLNAFDDGRGRIFVDMPVTDGNIFYFFPQSDGHVPPPETLSSRMMRWTFDMNNPGNALSMAPITDFACEFPKCDPRYSGHEYRHGFVIGMDMTRPFDAERLGAPPFQFFNLLSHVDVATRRVKSWFADAQTCFQEPVFVPRSANAPEGEGWVIALANRLVDQTTDLVILDAQHMDEGPVAVVHLPVRLRMSLHGSWVPAAA					850	0.02	2240	0.0765
